Source: US20200181258A1

Biological target: canine FcRn-β2M complex (canine)
Test: SPR, antibody captured on Protein L, soluble FcRn 920 and 460 nM, pH 6.0, 25 C

Kd: 150 nM
Substance: YTE-b12 canine IgGB (antibody)
